Test results as given in publication PMC3774798 (PLoS ONE, 2013).

Key:
[1] = molecular target: T1, PA4781HD-GYP (Pseudomonas aeruginosa, UniProt Q9HV27); assay: RP-HPLC of nucleotides, turnover; assay type: biochemical; conditions: REC domain removed, not phosphorylated; pH 8, 30 °C, Mg2+ and/or Mn2+
T1 construct: gene PA4781; HD-GYP domain, first 111 residues (REC domain) removed, His-tag (pET28b), E. coli BL21(DE3); mainly monomer

[2] = test system: Nc1nc2c(ncn2[C@@H]2O[C@@H]3CO[P@](=O)(O)O[C@H]4[C@@H](O)[C@H](n5cnc6c(=O)[nH]c(N)nc65)O[C@@H]4CO[P@](=O)(O)O[C@H]3[C@H]2O)c(=O)[nH]1; assay: purified protein
[3] = test system: Nc1nc2c(ncn2[C@@H]2O[C@H](COP(=O)(O)O[C@H]3[C@@H](O)[C@H](n4cnc5c(=O)[nH]c(N)nc54)O[C@@H]3COP(=O)(O)O)[C@@H](O)[C@H]2O)c(=O)[nH]1; assay: purified protein; conditions: Mg2+ and/or Mn2+
[4] = 10 mM MgCl2 and 2.5 mM MnCl2, 50 mM Tris-HCl pH 8, 150 mM NaCl, 30 °C, 0.64 µM enzyme
[5] = 50 mM Tris-HCl pH 8, 150 mM NaCl, 30 °C, may be apparent value (about 30% c-di-GMP still bound to protein)
[6] = protein phosphorylated with acetyl phosphate (extent unknown), pH 8, 30 °C

T1 sequence (Q9HV27 112-393): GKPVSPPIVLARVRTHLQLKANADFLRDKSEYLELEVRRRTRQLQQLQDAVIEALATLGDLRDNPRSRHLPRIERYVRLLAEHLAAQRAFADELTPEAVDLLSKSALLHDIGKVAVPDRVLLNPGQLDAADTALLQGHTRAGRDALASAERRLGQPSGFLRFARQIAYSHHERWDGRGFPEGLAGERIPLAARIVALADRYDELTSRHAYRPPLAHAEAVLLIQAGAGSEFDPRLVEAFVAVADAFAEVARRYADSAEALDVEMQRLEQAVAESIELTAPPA

Nc1nc2c(ncn2[C@@H]2O[C@@H]3COP(=O)(O)O[C@H]4[C@@H](O)[C@H](n5cnc6c(=O)[nH]c(N)nc65)O[C@@H]4COP(=O)(O)O[C@H]3[C@H]2O)c(=O)[nH]1 [c-di-GMP]
RP-HPLC of nucleotides, turnover [1]: displays little, but significant PDE activity

PA4108 (Pseudomonas aeruginosa PAO1)
Km [2, 4]: 20 ± 5 µM | kcat [2, 4]: 0.00015 ± 1e-05 s⁻¹ | Km [3, 5]: 30 ± 9 µM | kcat [3, 5]: 1.2±0.1x10^-3 s^-1

PA4781 (Pseudomonas aeruginosa PAO1)
Km ([2]; protein phosphorylated with acetyl phosphate (extent unknown), 10 mM MgCl2, pH 8, 30 °C): 119 ± 30 µM | Km [3, 6]: 27 ± 8 µM | kcat [3, 6]: 7.7±1x10^-4 s^-1
